Measured values taken from US20240398896A1, “INFLAMMASOME INHIBITION” (National University of Singapore, priority 2021, published 2024).

How the values were obtained:
[1] = rheumatoid arthritis; cited from earlier work
[2] = tested on: SARS-COV-2 immune complex-induced inflammasome activation; assay: SARS-COV-2 immune complex-induced inflammasome activation in human monocytes; assay type: cell-based; conditions: 50 μM MCC950, 18 h
[3] = molecular target: T1, NLRP3 inflammasome (Homo sapiens, UniProt Q9ULZ3); assay: ASC speck and filament formation in HEK293T cells reconstituted with human NLRP3-mCitrine and human ASC-mPlum (ImageStream, confocal); assay type: cell-based; parameters: expressed in transfected cells; host or cells: HEK293T; conditions: HEK293T; for ASC2 filament formation / distribution: ImageStream and confocal
T1 sequence (Q9ULZ3 whole entry): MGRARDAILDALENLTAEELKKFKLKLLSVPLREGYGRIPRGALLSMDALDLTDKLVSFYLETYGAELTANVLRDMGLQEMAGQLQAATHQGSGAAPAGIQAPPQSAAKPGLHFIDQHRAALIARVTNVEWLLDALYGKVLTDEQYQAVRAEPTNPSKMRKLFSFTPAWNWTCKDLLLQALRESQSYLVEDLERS
Protocol: (§1) Inflammasome activation assays.
ImageStream imaging flow cytometry. […] Nuclei were stained with DAPI.
Confocal imaging. […] At 48 h post-transfection, cells were fixed with 10% formalin for 15 min at room temperature. DAPI (1:2000 dilution) was used for nuclear staining. All samples were then mounted and examined using the Leica TCS SP8 confocal microscope.

[4] = molecular target: T2, NLRP3 inflammasome (Mus musculus, UniProt Q9EPB4); assay: Inflammasome activation in LPS-primed mouse immortalized macrophages (iMACs) stably expressing ASC2, stimulated with nigericin; assay type: cell-based; parameters: endogenous in cells; host or cells: BMDMs of C57BL/6 wild-type and bat ASC2/rtTA mice; conditions: iMACs stably expressing equal ASC2-LSSmOrange, LPS 3 h, FIG. 11J, 11K
T2 sequence (Q9EPB4 1-193): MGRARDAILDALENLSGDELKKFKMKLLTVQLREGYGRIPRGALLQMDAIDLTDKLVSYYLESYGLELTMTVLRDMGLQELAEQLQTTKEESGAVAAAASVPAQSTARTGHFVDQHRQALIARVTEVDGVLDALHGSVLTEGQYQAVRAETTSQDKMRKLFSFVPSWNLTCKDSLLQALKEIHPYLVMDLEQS
Text: (§2) Generation of THP-1 and IMACs stable cells. […] Single cell clones were generated for THP-1 cells stably expressing ASC2-LSSmOrange.
as §1

[5] = molecular target: T1, NLRP3 inflammasome; assay: Inflammasome activation in LPS-primed THP-1 macrophages stably expressing ASC2, stimulated with nigericin; assay type: cell-based; parameters: endogenous in cells; host or cells: THP-1 macrophages (PMA-differentiated, LPS-primed); conditions: THP-1 macrophages stably expressing equal ASC2-mCitrine, LPS 3 h, nigericin 2 h; FIG. 11L, 11M
Text: as §2, §1
ImageStream imaging flow cytometry.

[6] = tested on: bat ASC; assay: Co-immunoprecipitation of ASC2-His with bat ASC-Flag from HEK293T cells; assay type: binding; conditions: 0.25 μg bat or hupa4 ASC2 vs 3 μg human ASC2 transfected, FIG. 26B
Protocol: (§3) Co-immunoprecipitation. HEK293T cells were transfected in 6-well plate with plasmids encoding His-tagged empty vector (His alone), bat ASC2, human ASC2, and Hupa4 ASC2 along with Flag-tagged human or bat ASC. 3 μg human ASC2, in contrast to 0.25 μg control, bat or hupa4 ASC2, were transfected to normalize the expression. At 48 h post-transfection, cells were lysed in IP lysis buffer (Pierce) according to manufacturer's protocol and centrifuged at 500 g for 10 minutes at 4° C. The supernatants were subjected to immunoprecipitation by incubation for 16 hours at 4° C. with anti-Flag (Sigma) incubated magnetic beads, followed by washing three times with TBS containing 0.05% Tween 20 and once with purified water. Bound proteins were separated by 15% SDS-PAGE, followed by immunoblotting analysis with the indicated antibodies.

[7] = molecular target: T3, human ASC (Homo sapiens, UniProt Q9ULZ3); assay: Co-immunoprecipitation of ASC2-His with human ASC-Flag from HEK293T cells; assay type: binding; conditions: 0.25 μg bat or hupa4 ASC2 vs 3 μg human ASC2 transfected, FIG. 26A
T3 construct: expressed in transfected cells; host or cells: HEK293T
T3 sequence (Q9ULZ3 whole entry): as the sequence (Q9ULZ3 whole entry) above
Protocol: as §3

Molecule | Reason for discontinuation after phase II clinical trials [1] | Cell death (LDH release) ([2]; 100 ng/ml Pam3CSK4, immune complexes, FIG. 10M) | IL-1β secretion ([2]; Pam3CSK4 priming, immune complexes, FIG. 10I) | ASC2 filament formation / distribution [3] | Co-localization with human ASC ([3]; imaging, FIG. 3A) | Inflammasome inhibition (LDH release and IL-1β secretion) [4] | Inflammasome inhibition (LDH release and IL-1β secretion) [5] | Interaction with bat ASC (co-IP) [6] | Interaction with human ASC (co-IP) [7] | ASC speck formation (human NLRP3 inflammasome activation) ([3]; human NLRP3-mCitrine, human ASC-mPlum, 50 ng ASC2-LSSmOrange, 48 h post-transfection)
CC(C)(O)c1coc(S(=O)(=O)NC(=O)Nc2c3c(cc4c2CCC4)CCC3)c1 [MCC950] | liver toxicity | abolished | abolished |  |  |  |  |  |  | 
human ASC2: wildtype human ASC2, 89 amino acids, SEQ ID NO:7 (protein) MGTKREAILKVLENLTPEELKKFKMKLGTVPLREGFERIPRGALGQLDIVDLTDKLVASYYEDYAAELVVAVLRDMRMLEEAARLQRAA |  |  |  | diffusely distributed | not between human ASC2 and human ASC |  |  |  |  | 
hupa4 ASC2: human ASC2 with 4 key sites substituted simultaneously with the ones in bat ASC2, SEQ ID NO:6 (protein) MGTKREAILEVLENLTPEELKKFKMKLGTVPLREGFRRIPRGALGQLDIVDLTDKLVASYCEDYAAELVVAVLRDMGMLEEAARLQRAA |  |  |  | form filaments |  | gain-of-function | gain-of-function | interact with bat ASC more strongly than human ASC2 | interact strongly with human ASC | gained the ability to inhibit NLRP3 inflammasome
